Source: US20160152729A1 (Novo Nordisk, published 2016)

Columns and labels:
human TFPI (1-79) = molecular target: T1, human TFPI (1-79) (human, UniProt P10646 29-107); assay: SPR Biacore T200; antibody captured on anti-human IgG Fc; TFPI as analyte; 1:1 model
T1 construct: Acidic N-terminal region and KPI-1 domain
Procedure: (§1) Binding interaction data were obtained by means of Surface Plasmon Resonance in a Biacore T200 instrument. […] chip (GE Healthcare) in flow-cells 1-4 using the amine coupling protocol available with the Biacore T-200 control software version 2.0 (GE Healthcare) and the reagents provided with the Amine Coupling Kit (GE Healthcare). […] Different concentrations of human TFPIα or TFPI (1-79) were tested by diluting the sample in running buffer (10 mM HEPES, pH 7.4, 300 mM NaCl, 5 mM CaCl₂, 0.05% Surfactant P20, 1 mg/ml BSA). Each sample was assayed using 300 seconds of contact time followed by 420-600 seconds of dissociation time at 30 μl/min flow rate. A buffer blank was also assayed. The sensor surface was regenerated with 10 mM Glycine pH 1.7 either for 180 sec at 30 μl/min flow rate or with two cycles each of 30 seconds at 30 μl/min flow rate.
(§2) The Biacore T200 Evaluation software (version 2.0) was used to analyse the data. Determination of binding constants (kₐ, kd, KD) was obtained assuming a 1:1 interaction of TFPI and the monoclonal antibody of interest.

human TFPIα = molecular target: T2, human TFPIα (human, UniProt P10646 29-304); assay: as above
T2 construct: recombinant full-length TFPIα in the assays; also called TFPI alpha; full-length TFPIα
Procedure: as §1, §2

- Kd (human TFPI (1-79)): 0.27 nM
- Kd (human TFPIα): 0.46 nM
B1: mAb 0294 (antibody, human IgG4 S228P, kappa, V domains shown)
VH: QVQLKQSGPGLVQPSQSLSITCTVSGFSLTNYGVHWVRQSPGKGLEWLAVIWRGGSIDYNAAFMSRLSITKDNSKSQVFFKMNSLQADDTAIYYCAKNSHGNYVGYAMDYWGQGTSVTVSS
VL: GIVMTQSQKFMSTTVGDRVSITCKASQSVGPAVAWYQQKPGQSPKLLIYSASNRYTGVPDRFTGSGSGADFTLTISNLHSEDLADYFCQQYTSYPTFGGGTKLEIKR
notes: Murine-human chimera of mAb 2F22, human IgG4 (S241P) constant region, human kappa; also called chimeric mAb 2F22
